Laboratory results from article doi:10.1101/2020.05.26.100743 (bioRxiv, 2020).

Assays:
Assay in all cases: SPR
[1] = target: VH1 C110S mutant (His-MBP-VH1 fusion) (vaccinia virus Copenhagen strain, UniProt P20495 1-171, C110S)
[2] = target: VH1 K20A mutant (His-MBP-VH1 fusion) (vaccinia virus Copenhagen strain, UniProt P20495 1-171, K20A)
[3] = target: VH1 K22A mutant (His-MBP-VH1 fusion) (vaccinia virus Copenhagen strain, UniProt P20495 1-171, K22A)
[4] = target: VH1 M60A mutant (His-MBP-VH1 fusion) (vaccinia virus Copenhagen strain, UniProt P20495 1-171, M60A)
[5] = target: VH1 T25A mutant (His-MBP-VH1 fusion) (vaccinia virus Copenhagen strain, UniProt P20495 1-171, T25A)
[6] = target: VH1 T59A mutant (His-MBP-VH1 fusion) (vaccinia virus Copenhagen strain, UniProt P20495 1-171, T59A)

Measured: binding result

VDADEYLIPQQ [EGFR pTyr peptide 986-VDADEpYLIPQQ-998 (11-mer)]
binds: all assays above
